The record followed here is publication PMC1351370.

The target of series [1] is T1, HIV-1 nucleocapsid protein NC (wild type) (HIV-1 pNL4-3, UniProt P12493 378-432). The series is described as follows: competition.
The target in series [2] is T1, HIV-1 nucleocapsid protein NC (wild …). The experiment in a line: competition. The source holds these as a separate data set.
Series [3] has the same target. The series is described as follows: tryptophan fluorescence quenching.
For series [4] the target is unchanged. The experiment in a line: tryptophan fluorescence quenching. The source holds these as a separate data set.
Series [5] shares this target. The series is described as follows: SPR. For orientation: SPR reads the build-up and loss of mass on a sensor chip optically.

Where two headings read alike, the source gives them in different places.

On to TGTGTGTGTGTGTGTGTGTG (ssDNA) [(TG)10], for which, in series [1], the IC50 (usually the midpoint of a concentration-inhibition curve) was found to be 37 ± 2.73 nM. AAAAAAAAAAAAAAAAAAAAAAAAAAAAAA (ssDNA) [(A)30] returned an IC50 in series [1] of 6680 ± 785 nM. As for TGTGTGTG (ssDNA) [(TG)4], in series [2], the IC50 worked out at 264 ± 101 nM. The Kd (usually a measure of binding affinity in units of concentration) in series [3] amounted to 3.4 ± 0.07 nM; in series [4] it was 4.7 ± 0.67 nM.

As for AAAAAAAA (ssDNA) [(A)8], the binding result in series [5] is on record as “no binding”.
